This is an account of results in US20240199757A1 (UNIVERSITY OF CHICAGO, published 2024).

Data set [1] addresses hNT5EDF (substrate binding knock-out variant of hNT5E) (human). Put plainly: DSF thermal shift, 1.5-fold molar excess of Fab, 1 mM ATP (hNT5EDF alone 46° C.). Here is the method:
With 1 mM ATP alone (red dashed line), the TM shifts from one transition at 49° C. to two transitions at TM 59° C. and 64° C. […] Thermal shift assays of substrate binding knock-out variants hNT5EDF (FIG. 2B) and hNT5EFF (FIG. 2C) show no change in thermal stability with the addition of ATP.
Thermal stability of samples was analyzed by differential scanning fluorimetry (DSF) using a real-time PCR instrument (Bio-Rad CFX384). Protein samples were mixed with 4× Sypro Orange at a final 4 μM concentration. For target/Fab complexes, 1.5-fold molar excess of Fab was used. All reactions were performed in triplicates in a 384-well plate. Thermal melting curves were monitored from 25° C. to 95° C. in steps of 0.5° C./30 s. Wavelengths of 490 and 575 nm were used for excitation and emission, respectively. The melting temperatures were inferred from the first derivative of the melting curves from the mean of triplicate runs using CFX software provided by the manufacturer.

The target in data set [2] is T1, Full-length cynomolgus NT5E (recombinant) (cynomolgus, UniProt P21589 27-549 (human entry)).
T1 construct: also called cNT5E; cyno NT5E
T1 chain: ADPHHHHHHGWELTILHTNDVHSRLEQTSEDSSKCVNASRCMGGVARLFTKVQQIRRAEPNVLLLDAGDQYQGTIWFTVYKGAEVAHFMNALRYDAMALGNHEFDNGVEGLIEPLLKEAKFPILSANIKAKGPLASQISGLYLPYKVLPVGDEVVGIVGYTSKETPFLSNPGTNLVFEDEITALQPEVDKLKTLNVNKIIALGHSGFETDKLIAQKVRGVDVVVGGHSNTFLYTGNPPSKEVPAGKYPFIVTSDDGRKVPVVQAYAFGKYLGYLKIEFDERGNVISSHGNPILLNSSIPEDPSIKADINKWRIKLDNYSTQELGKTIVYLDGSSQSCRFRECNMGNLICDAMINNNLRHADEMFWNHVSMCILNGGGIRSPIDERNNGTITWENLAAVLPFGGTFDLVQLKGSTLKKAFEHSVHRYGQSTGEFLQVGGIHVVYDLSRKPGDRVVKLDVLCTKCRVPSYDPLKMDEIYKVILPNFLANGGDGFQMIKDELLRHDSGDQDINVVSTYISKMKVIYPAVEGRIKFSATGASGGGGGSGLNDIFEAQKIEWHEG
Put plainly: ELISA, biotinylated NT5E on neutravidin plate, 1 mM ATP. On the procedure: (B) Protein ELISA: Protein-based multipoint ELISA was performed to estimate the affinity of the generated Fabs and IgGs to NT5E. The binding of the Fabs and IgGs to the closed form of NT5E were determined in ELISA buffer (HBST) supplemented with 10 μM zinc chloride and 1 mM ATP while the binding of the same to open form of NT5E were determined in ELISA buffer (HBST) without any cofactors. A fixed concentration of the immobilized target (50 nM) on ELISA plate was incubated with 3-fold serial dilutions of the purified Fabs and IgGs starting from 3 μM and 1 μM respectively for 15 min. The plates were washed and were subsequently incubated with a secondary HRP-conjugated anti-protein L monoclonal antibody (#32420, ThermoFisher, 1:6000 dilution). As with phage ELISA, the plates were again washed, developed with TMB substrate and quenched with 1.0 M HCl, and absorbance (Abs450) was determined. To determine the affinity (EC50), the data were fitted with a non-linear, 4-parameter logistic curve in OriginLab.
For orientation: ELISA stands for enzyme-linked immunosorbent assay.

Data set [3] addresses T2, Full-length murine NT5E (recombinant) (murine, UniProt Q61503 29-552).
T2 construct: also called mNT5E
T2 sequence: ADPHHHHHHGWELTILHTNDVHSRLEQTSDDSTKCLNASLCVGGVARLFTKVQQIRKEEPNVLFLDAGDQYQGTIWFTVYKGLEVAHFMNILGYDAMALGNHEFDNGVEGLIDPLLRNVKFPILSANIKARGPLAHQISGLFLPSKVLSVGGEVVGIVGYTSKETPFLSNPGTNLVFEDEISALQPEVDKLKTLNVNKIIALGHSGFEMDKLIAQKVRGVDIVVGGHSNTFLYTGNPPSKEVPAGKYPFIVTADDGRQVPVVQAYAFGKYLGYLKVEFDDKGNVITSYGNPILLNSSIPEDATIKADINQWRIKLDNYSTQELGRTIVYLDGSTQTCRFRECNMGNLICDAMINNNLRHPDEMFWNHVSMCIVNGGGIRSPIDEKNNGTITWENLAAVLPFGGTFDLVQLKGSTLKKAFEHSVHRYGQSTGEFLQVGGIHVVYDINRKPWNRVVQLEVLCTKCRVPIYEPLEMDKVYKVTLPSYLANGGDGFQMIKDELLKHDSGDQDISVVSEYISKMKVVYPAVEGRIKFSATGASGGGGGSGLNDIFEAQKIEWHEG
Put plainly: SPR, His-captured NT5E, 1 mM ATP; SPR, 1 mM ATP. Here is the method:
All SPR experiments were performed at 25° C. using MASS-1 (Bruker) instrument. hNT5E, mNT5E and cNT5E were immobilized onto a nitrilotriacetic acid (NTA) sensor chip via His-tag. For kinetic experiments, after ligand immobilization, 2-fold serial dilutions of the Fabs were injected. After double-reference subtraction data were analyzed with BiaEvaluation (GE Healthcare) or Sierra Analyser (Bruker) software. The experiments were carried in buffers in presence and absence of 1 mM ATP to compare the kinetic parameters of the Fabs binding to closed and open form of NT5E.

B1: 1789 Fab (Fab, V domains shown)
VH: EVQLVESGGGLVQPGGSLRLSCAASGFNVSYSSIHWVRQAPGKGLEWVASISSSSGYTYYADSVKGRFTISADTSKNTAYLQMNSLRAEDTAVYYCARNYWGWYPFYYFAFDYWGQGTLVTV
VL: DIQMTQSPSSLSASVGDRVTITCRASQSVSSAVAWYQQKPGKAPKLLIYSASSLYSGVPSRFSGSRSGTDFTLTISSLQPEDFATYYCQQGWDYPITFGQGTKVEIKR
Regarding B1, the “TM of NT5E in the presence of the Fab” value in data set [1] is 46 ° C. For the same molecule, the EC50 (commonly the concentration giving half of the maximal effect) in data set [2] came to 28 nM. In data set [3], the Kd (in general, a measure of binding affinity in units of concentration) worked out at 160 nM; the off-rate (koff) (usually a measure of how fast the partners let go of each other) stood at 0.014 s⁻¹; the kon (in general, the second-order rate constant of association) is 85000 M⁻¹ s⁻¹.

B2: 1789 IgG (antibody, V domains shown)
VH: EVQLVESGGGLVQPGGSLRLSCAASGFNVSYSSIHWVRQAPGKGLEWVASISSSSGYTYYADSVKGRFTISADTSKNTAYLQMNSLRAEDTAVYYCARNYWGWYPFYYFAFDYWGQGTLVTVSS
VL: B1 VL
B2: the 50% effective concentration (EC50) in data set [2] worked out at 0.57 nM.
